According to patent publication US20070244040:

B1: caspase 7 (protein)
chain: AKPDRSSFVPSLFSKKKKNVTMRSIKTTRDRVPTYQYNMNFEKLGKCIIINNKNFDKVTGMGVRNGTDKDAEALFKCFRSLGFDVIVYNDCSCAKMQDLLKKASEEDHTNAACFACILLSHGEENVIYGKDGVTPIKDLTAHFRGDRCKTLLEKPKLFFIQACRGTELDDGIQADSGPINDTDANPRYKIPVEADFLFAYSTVPGYYSWRSPGRGSWFVQALCSILEEHGKDLEIMQILTRVNDRVARHFESQSDDPHFHEKKQIPCVVSMLTKELYFSQ
B2: caspase 8 (protein)
chain: SESQTLDKVYQMKSKPRGYCLIINNHNFAKAREKVPKLHSIRDRNGTHLDAGALTTTFEELHFEIKPHDDCTVEQIYEILKIYQLMDHSNMDCFICCILSHGDKGIIYGTDGQEAPIYELTSQFTGLKCPSLAGKPKVFFIQACQGDNYQKGIPVETDSEEQPYLEMDLSSPQTRYIPDEADFLLGMATVNNCVSYRNPAEGTWYIQSLCQSLRERCPRGDDILTILTEVNYEVSNKDDKKNMGKQMPQPTFTLRKKLVFPSD
B3: caspase 9 (protein)
chain: MDEADRRLLRRCRLRLVEELQVDQLWDALLSRELFRPHMIEDIQRAGSGSRRDQARQLIIDLETRGSQALPLFISCLEDTGQDMLASFLRTNRQAAKLSKPTLENLTPVVLRPEIRKPEVLRPETPRPVDIGSGGFGDVGALESLRGNADLAYILSMEPCGHCLIINNVNFCRESGLRTRTGSNIDCEKLRRRFSSLHFMVEVKGDLTAKKMVLALLELAQQDHGALDCCVVVILSHGCQASHLQFPGAVYGTDGCPVSVEKIVNIFNGTSCPSLGGKPKLFFIQACGGEQKDHGFEVASTSPEDESPGSNPEPDATPFQEGLRTFDQLDAISSLPTPSDIFVSYSTFPGFVSWRDPKSGSWYVETLDDIFEQWAHSEDLQSLLLRVANAVSVKGIYKQMPGCFNFLRKKLFFKTS
B4: caspase 3 (protein)
chain: SGISLDNSYKMDYPEMGLCIIINNKNFHKSTGMTSRSGTDVDAANLRETFRNLKYEVRNKNDLTREEIVELMRDVSKEDHSKRSSFVCVLLSHGEEGIIFGTNGPVDLKKITNFFRGDRCRSLTGKPKLFIIQACRGTELDCGIETDSGVDDDMACHKIPVEADFLYAYSTAPGYYSWRNSKDGSWFIQSLCAMLKQYADKLEFMHILTRVNRKVATEFESFSFDATFHAKKQIPCIVSMLTKELYFYH
B5: caspase 6 (protein)
chain: AFYKREMFDPAEKYKMDHRRRGIALIFNHERFFWHLTLPERRGTCADRDNLTRRFSDLGFEVKCFNDLKAEELLLKIHEVSTVSHADADCFVCVFLSHGEGNHIYAYDAKIEIQTLTGLFKGDKCHSLVGKPKIFIIQACRGNQHDVPVIPLDVVDNQTEKLDTNITEVDAASVYTLPAGADFLMCYSVAEGYYSHRETVNGSWYIQDLCEMLGKYGSSLEFTELLTLVNRKVSQRRVDFCKDPSAIGKKQVPCFASMLTKKLHFFPKSN

How the values were obtained:
Livin α = biological target: T1, Livin α
T1 chain: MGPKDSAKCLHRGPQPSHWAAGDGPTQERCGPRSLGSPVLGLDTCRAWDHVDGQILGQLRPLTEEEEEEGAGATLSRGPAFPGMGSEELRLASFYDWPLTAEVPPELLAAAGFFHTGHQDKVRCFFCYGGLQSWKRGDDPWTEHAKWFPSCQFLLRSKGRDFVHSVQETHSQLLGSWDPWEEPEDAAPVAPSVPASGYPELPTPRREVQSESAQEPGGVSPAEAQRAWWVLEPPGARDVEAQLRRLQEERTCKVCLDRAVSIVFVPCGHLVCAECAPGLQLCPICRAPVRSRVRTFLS

Livin β = biological target: T2, Livin β
T2 chain: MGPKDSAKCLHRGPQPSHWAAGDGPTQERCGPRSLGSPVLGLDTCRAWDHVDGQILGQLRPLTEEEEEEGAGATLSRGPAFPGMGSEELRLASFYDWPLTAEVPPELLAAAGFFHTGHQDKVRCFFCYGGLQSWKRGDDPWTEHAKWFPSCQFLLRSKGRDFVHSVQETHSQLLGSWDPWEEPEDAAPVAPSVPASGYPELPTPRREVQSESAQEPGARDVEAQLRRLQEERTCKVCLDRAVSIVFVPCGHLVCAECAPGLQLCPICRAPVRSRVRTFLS

6×His-Livin β = biological target: T3, 6×His-Livin β
T3 chain: T2 chain

6×His-Livin α = biological target: T4, 6×His-Livin α
T4 chain: T1 chain

Protein | in vitro cleavage of in vitro translated protein, Western blot (Livin α) | in vitro cleavage of in vitro translated protein, Western blot (Livin β) | in vitro cleavage, Western blot with anti-Livin antibody (6×His-Livin β) | in vitro cleavage, Western blot with anti-Livin antibody (6×His-Livin α)
B1 | underwent cleavage similar to the wild-type protein by caspase 3 and 7 | underwent cleavage similar to the wild-type protein by caspase 3 and 7 | The most efficient cleavage was observed when caspase 7 was used, resulting in the complete cleavage of the recombinant Livin β | In contrast to the marked efficiency of caspase 7, caspase 6 was not able to cleave Livin at low concentrations (FIG. 4b)
B2 | – | – | Treatment of recombinant Livin α and β with caspase 8 had no effect even when 90 units of this enzyme were used | Treatment of recombinant Livin α and β with caspase 8 had no effect even when 90 units of this enzyme were used
B3 | – | – | incubation with high concentrations of caspase 9 resulted in a weak cleavage, suggesting that caspase 9 might cleave Livin with a very low affinity | incubation with high concentrations of caspase 9 resulted in a weak cleavage, suggesting that caspase 9 might cleave Livin with a very low affinity
B4 | underwent cleavage similar to the wild-type protein by caspase 3 and 7 | underwent cleavage similar to the wild-type protein by caspase 3 and 7 | effector caspases 3, 7, and relatively high concentrations of caspase 6, but not the initiator caspases 8 and 9, cleaved Livin β | –
B5 | it did not cleave any of the Livin isoforms that were translated in eukaryotic in vitro system | it did not cleave any of the Livin isoforms that were translated in eukaryotic in vitro system | relatively high concentrations of caspase 6 ... cleaved Livin β | caspase 6 was not able to cleave Livin at low concentrations (FIG. 4b)
